assay: soluble on expression in E. coli; label from the status in PepcDB or PDB records

Sequence | soluble on expression in E. coli
SLKAKILFVGPCESGKTVLANFLTESSDITEYNPTQGVRILEFENPHVTSNNKGTGCEFELWDCGGDSKFESCWPALMKDAHGVVIVFNADIPSHLKEIEMWYSCFVQQQFLQDSHCMLVAHHKPGSGGERGSLALSPPLNKLKLVHSNLEEDPEEVRVEFIKYLKSIINSMSESRDREEMLIIT | soluble
AHPELKSSVPQADSAVAAPEKIQLNFSENLTVKFSGAKLTMTGMKGMSSHSPMPVAAKVAPGADPKSMVIIPREPLPAGTYRVDWRAVSSDTHPITGNYTFTVK | soluble
GSQPAKKTYTWNTKEEAKQAFKELLKEKRVPSNASWEQAMKMIINDPRYSALAKLSEKKQAFNAYKVQTEK | soluble
GSSQISDMTRDGLANKALAVARTLADSPEIRQGLQKKPQESGIQAIAEAVRKRNDLLFIVVTDMQSLRYSHPEAQRIGQPFKGDDILKALNGEENVAINRGFLAQALRVFTPIYDENHKQIGVVAIGLELSRVTQQINDSRW | soluble
SVLEGNPEVGSPRTSDLQHRGNKGSCVLSSPGEDAQPGEEPIKYGELIVLGCCEEGGEETEAQRGEVTGPRAHSCYNGCLASGDKGRRRSRLALSRRSHANGVKPDVMHHISTPLVSKALSNRGQHSISYTLSRSHSVIVEYTHDSDTDMFQIGRSTENMIDFVVTDTSPGGGAAEGPSAQSTISRYACRILCDRRPPYTARIYAAGFDASSNIFLGERAAKWRTPDGLMDGLTTNGVLVMHPAGGFSEDSAPGVWREISVCGNVYTLRDSRSAQQRGKLVGGPLHSPPLSLPGPHKLPIPLPKPGDDLQSFCPREPQQAPYQGIPGPGGS | soluble
MSFVVANTEFVSGAAGNLARLGSMISAANSAAAAQTTAVAAAGADEVSAAVAALFGAHGQTYQVLSAQAAAFHSQFVQALSGGAQAYAAAEATNFGPLQPLFDVINAPTLALLNRPLIGNGADGTAANPNGQAGGLLIGNGGNGFSPAAGPGGNGGAAGLLGHGGNGGVGALGANGGAGGTGGWLFGNGGAGGNSGGGGGAGGIGGSAVLFGAGGAGGISPNGMGAGGSGGNGGLFFGNGGAGASSFLGGGGAGGRAFLFGDGGAGGAALSAGSAGRGGDAGFFYGNGGAGGSGAGGASSAHGGAGGQAGLFGNGGEGGDGGALGGNGGNGGNAQLIGNGGDGGDGGGAGAPGLGGRGGLLLGLPGANGT | not soluble
MKKGTVLNSEISSVISRLGHTDTLVVCDAGLPIPNSTARIDMALTQGVPSFMQVVDVVTREMQVEAAILATEIKQQNPQLHETLLTHLEQLQQHQGNTIKISYTTHEQFKKLTADSQAVIRSGECSPYANVILCAGVTF | not soluble
MSLDGSVAAAGLGLGLPTTDSRGHYQLLLSGRALADRYRRIYTTALSDRDQAGSSTGHPASRNKKILNKKKLKRKQKSKSKVKTRSKSENVENTVIIPDIKLHSNPSAFNIYCNVRHCVLEWQKKETSLAAASKNSVQSGESDSDEEEESREPPIKLPKIIEVGLCEVFELIKETRFSHPSLCLRSLQALLNVLQGQQPEGLQSEPPEVLESLFQLLLEITVRSTGMNDSTGQSLTALSCACLFSLVASWGETGRTLQAISAILTNNGSHACQTIQVPTILNSLQRSVQAVLVGKIQVQDWFSNGIKKAALMHKWPLKEVSVDEDDQCLLQNDGFFLYLLCKDGLYKIGSGYSGTVRGHIYNSTSRIRNRKEKKSWLGYAQGYLLYRDLNNHSMTAIRISPETLEQDGTVLLPDCHTEGQNILFTDGEYINQIAASRDDGFVVRIFATSTEPVLQQELQLKLARKCLHACGISLFDLEKDLHIISTGFDEESAILGAGREFALMKTANGKIYYTGKYQSLGIKQGGPSAGKWVELPITKSPKIVHFSVGHDGSHALLVAEDGSVFFTGSASKGEDGESTKSRRQSKPYKPKKIIKMEGKIVVYTACNNGSSSVISKDGELYMFGKDAIYSDSSSLVSDLKGHFVTQVAMGKAHTCVLMKNGEVWTFGVNNKGQCGRDTGAMNQGGKGFGVENMATAMDEDLEEELDEKDEGHHHHHH | not soluble
MIIPLVFLIGFAAAGNFGSSSSESCEDGNGGGRPRPGNGGGRPPGNGNGNGNGGGRPTNGGCDAGWRRFNRPNGGWCVRVFGARMTQADAQIQCQSYGATLSSLQNMEEALQINNMALSVIKANTGSVWIGAKRTTACLKQWLWTNGCGRQNSFAWTDGSATGVAGFVWDNLQPDNDELKQPCAVMLAARAAVTWGGKFWQPAMLDDNNCMFDLEGKHPRSVYGYVCGKNSRA | not soluble
MSSGSAGAPALSNNSTNSVAKEKSGNISGDEYLSQEEEVFDGNDIENNETKVYEESLDLDLERSNRQVWLVRLPMFLAEKWRDRNNLHGQELGKIRINKDGSKITLLLNENDNDSIPHEYDLELTKKVVENEYVFTEQNLKKYQQRKKELEADPEKQRQAYLKKQEREEELKKKQQQQKRRNNRKKFNHRVMTDRDGRDRYIPYVKTIPKKTAIVGTVCHECQVMPSMNDPNYHKIVEQRRNIVKLNNKERITTLDETVGVTMSHTGMSMRSDNSNFLKVGREKAKSNIKSIRMPKKEILDYLFKLFDEYDYWSLKGLKERTRQPEAHLKECLDKVATLVKKGPYAFKYTLRPEYKKLKEEERKATLGELADEQTGSAGDNAQGDAEADLEDEIEMEDVV | soluble
SMDEVVRIHSSSGTTGKPTVVGYTKHDMEVWGEVMARTFTLAGVTAKDVVHNAYGYGLFTGGLGFHDGAQRVGATIIPASGGFTNRQIMLLRDFKATALTCTPSFAMHLAEVAKSEGFDPRKDFHLKAGIFGAEPSSEGLQRAVADTWGIAYHEIYGLSELIGPGVSCSCEQ | not soluble
MGSGGVVHCRCAKCFCYPTKRRIRRRPRNLTILSLPEDVLFHILKWLSVEDILAVRAVHSQLKDLVDNHASVWACASFQELWPSPGNLKLFERAAEKGNFEAAVKLGIAYLYNEGLSVSDEARAEVNGLKASRFFSLAERLNVGAAPFIWLFIRPPWSVSGSCCKAVVHESLRAECQLQRTHKASILHCLGRVLSLFEDEEKQQQAHDLFEEAAHQGCLTSSYLLWESDRRTDVSDPGRCLHSFRKLRDYAAKGCWEAQLSLAKACANANQLGLEVRASSEIVCQLFQASQAVSKQQVFSVQKGLNDTMRYILIDWLVEVATMKDFTSLCLHLTVECVDRYLRRRLVPRYRLQLLGIACMVICTRFISKEILTIREAVWLTDNTYKYEDLVRMMGEIVSALEGKIRVPTVVDYKEVLLTLVPVELRTQHLCSFLCELSLLHTSLSAYAPARLAAAALLLARLTHGQTQPWTTQLWDLTGFSYEDLIPCVLSLHKKCFHDDAPKDYRQVSLTAVKQRFEDKRYGEISQEEVLSYSQLCAALGVTQDSPDPPTFLSTGEIHAFLSSPSGRRTKRKRENSLQEDRGSFVTTPTAELSSQEETLLGSFLDWSLDCCSGYEGDQESEGEKEGDVTAPSGILDVTVVYLNPEQHCCQESSDEEACPEDKGPQDPQALALDTQIPATPGPKPLVRTSREPGKDVTTSGYSSVSTASPTSSVDGGLGALPQPTSVLSLDSDSHTQPCHHQARKSCLQCRPPSPPESSVPQQQVKRINLCIHSEEEDMNLGLVRL | soluble
MNRDDAPPIPDALSHRQLNRWLETAMQESSTPAKESNDILSAELERWANHTRFLLQRMAHKGDAIGSDRSPQQVMALGSFRTHLMLGLQALKASQPGR | not soluble
NLSASNRALPVLTLFTKAPCPLCDEAKEVLQPYKDRFILQEVDITLPENSTWYERYKFDIPVFHLNGQFLMMHRVNTSKLEKQLRKL | soluble
SLETFHFNYTLISICIYLYIYDGSFISLSEDHKPYNKKEKERIYKIGGFVENGRILGYIGVSRSFGDKNYKIKSDCPYNPHETMISCIPDIKIFYANCDDILFLGCDGLFEMLSWNDVAKFTYDCMNRHTLSDAVINILDYALLSGSKDNITIQIIKFFNE | soluble
MEPVLFYGVPHGCSFGSIVALEWLGRPYRLCRIEMPLDTGERTYVRLNPARQTPTLLLEDGRALSESLAILQHLAARDLCRKLGYPQGSAEFDELNFALALLHTECHSAWGALFYLEDADATTTARALTRAARAYGRIDKLLGDRKWLAGEGPSVADAYLAGTARWGRELGYFDLQHDFPRLHRHLEKLEQDPAVRFAHAIEDRLPAQSCGEFRGEVTLAEVASRLLA | not soluble
MTHRSSRLEVGPVARGDVATIEHAELPPGWVLTTSGRISGVTEPGELSVHYPFPIADLVALDDALTYSSRACQVRFAIYLGDLGRDTAARAREILGKVPTPDNAVLLAVSPNQCAIEVVYGSQVRGRGAESAAPLGVAAASSAFEQGELVDGLISAIRVLSAGIAPG | soluble
MTQGKGTREGGVLADVSALGPGGHAVVVGGGLAGVTTALALADAGVRVTLLEGRPRLGGLAFSFQRGDLTVDNGQHVYLRCCTAYRWFLDRIGGAALAPVQERLDVPVVDLARTEGNRLGRLRRDALPVPLHLGRSLATYPHLSLAERASVGRAALALKGLDLADPSLDTQDFGSWLTAHGQSARAVEALWDLVGVATLNAVAGDASLGLAAMVFKTGLLSDPGAADIGWARVPLGELHDRLARKALDSAGVRTEVRTRVTSVSVNENGGWSVQVPGETLEADAVVLAVPQREAHDLLPDGALDAPENLLRIGTAPILNIHVIYDRKVLGTPFLTALGTPVQWVFDRTEASGLKEGQYLALSQSTAQNDIDEPVAVLRERYLPELERLLPRTRGAEVKDFFVTRERTATFAPAPGVGRLRPGARTKAPGLYLAGAWTATGWPATMESAVRSGVGAAAAALGALGRSRGLLPDFFEEAALEHHHHHH | not soluble
MGSDKIHHHHHHAPLTFDETAFREDVKTLASDAFGGRAPLSDGEQKTLDYLTHAFKSMGLKGAFNGEYLQAVPMAKITADQSMVLKVGELSFTSGEDFTARTQRVVPKVELSGSDMVFVGYGINAPEYGWNDYAGIDVRGKTVVLLVNDPGFATQDPKVFKGNAMTYYGRWTYKYEEAARQGAEAVFIVHEDAPAAYGWGVVKNSNTNTKFTLVDGNNNQSQVGVMGWLQYAAAKQILAASGQDIEALKAAAKAPGFKAVPLTVQADLTLSNHIERAESHNVAAILPGNKNADEAVVMHAHWDHLGQIEEEGKTIILNGAVDNATGVAGVLALARHYAALPEAEKPARSMIFSAFTAEETGLIGAQYFAENPPLPTSKLVAFLNIDGMNVGEGVDYILRYGEGVSELETMLSDAAKAQNRQVKADPRPQNGLMFRSDHFALAQQGVPGLLFMSLGDTDPDYIAHKYHKGADDYSPDWQLGGVKQDLKLIEQILSRLANGSEWPKWLEESDFKARRAKDGR | not soluble
MEALRLEGVSKRYGRRPVLEGVSLSVRPGEVYALAGPNGSGKTTLIRLATGLAFPTKGRAFLLGEDVHKSPAARRHLGAVVEAPAAFYPYLTGRENLRMHARLSGVEDEARIGEVLARLKLLAVADQKVEGYSLGQRQRLGLAAAILHRPKVLVLDEPTSGLDPEGVELVHRLLQELAREGVAILLSTHHLQEVARYAHRVGILGGGRLLDEVVLSGKEAYRLEAEPLEGALALLKTLPQVASARLQGRSVVFEGEPEAALRALLAEGYRVRALAPHRFDLLDYYQERVRHV | soluble
MGSDKIHHHHHHMETQQLLSIYPQATISPRPSVAKNMVCVAIDAGKYICIDTTNLSNRELSLLELLTHTKSNATTGDAWSEFLTGRHTTAPQTTAKKLQILQFRVHFTERHADRSQWLSAIADTFEHVLHRAFITADSGYLLLTESLTDTSADLASLLALIDNDFYTNTHLFIGSTHRSSQDLPTTFALEQQLFSQNQQDTIVTLSSSLLPFLVNQHQPELQALRNSLSLDSDNKQLIRALYHTQGNVRQAASKLFLHRNTLLYRIEKFERCNGLNLKNMDDLVYCYLLTLGQVINQVEK | not soluble

Source: the DeepSol protein solubility set
